In paper PMC6365055, “High resolution cryo-EM structure of the helical RNA-bound Hantaan virus nucleocapsid reveals its assembly mechanisms” (eLife, 2019):

Legend:
cryo-EM structure = target: the molecule itself; assay: cryo-EM structure
negative stain EM = target: the molecule itself; assay: negative stain EM

| Protein | binding result (cryo-EM structure) | binding result (negative stain EM) |
| --- | --- | --- |
| Hantaan virus nucleoprotein, recombinant full-length (natural protein, also called HTNV-NP; NP) MATMEELQREINAHEGQLVIARQKVRDAEKQYEKDPDELNKRTLTDREGVAVSIQAKIDELKRQLADRIATGKNLGKEQDPTGVEPGDHLKERSMLSYGNVLDLNHLDIDEPTGQTADWLSIIVYLTSFVVPILLKALYMLTTRGRQTTKDNKGTRIRFKDDSSFEDVNGIRKPKHLYVSLPNAQSSMKAEEITPGRYRTAVCGLYPAQIKARQMISPVMSVIGFLALAKDWSDRIEQWLIEPCKLLPDTAAVSLLGGPATNRDYLRQRQVALGNMETKESKAIRQHAEAAGCSMIEDIESPSSIWVFAGAPDRCPPTCLFIAGIAELGAFFSILQDMRNTIMASKTVGTSEEKLRKKSSFYQSYLRRTQSMGIQLGQRIIVLFMVAWGKEAVDNFHLGDDMDPELRTLAQSLIDVKVKEISNQEPLKL | binds |  |
| NP_(74-429) construct obtained by trypsin limited proteolysis of HTNV-NC (domain or fragment, also called truncated construct NP_(74-429)) NLGKEQDPTGVEPGDHLKERSMLSYGNVLDLNHLDIDEPTGQTADWLSIIVYLTSFVVPILLKALYMLTTRGRQTTKDNKGTRIRFKDDSSFEDVNGIRKPKHLYVSLPNAQSSMKAEEITPGRYRTAVCGLYPAQIKARQMISPVMSVIGFLALAKDWSDRIEQWLIEPCKLLPDTAAVSLLGGPATNRDYLRQRQVALGNMETKESKAIRQHAEAAGCSMIEDIESPSSIWVFAGAPDRCPPTCLFIAGIAELGAFFSILQDMRNTIMASKTVGTSEEKLRKKSSFYQSYLRRTQSMGIQLGQRIIVLFMVAWGKEAVDNFHLGDDMDPELRTLAQSLIDVKVKEISNQEPLKL |  | binds |
